Values quoted from earlier work as cited in patent US8541367B2, “Plasma anti-diabetic NUCB2 peptide (pladin) and uses thereof” (Landing Biotech, Inc., priority 2009, dated 2013).

Tested on: rats
Conditions: injected directly into the brain of rats; cited from earlier work

B1: NUCB2: hypothalamus-secreted protein containing 396 amino acids (protein, UniProt P80303 25-420, looked up)
Nucleobindin-2: VPIDIDKTKVQNIHPVESAKIEPPDTGLYYDEYLKQVIDVLETDKHFREKLQKADIEEIKSGRLSKELDLVSHHVRTKLDELKRQEVGRLRMLIKAKLDSLQDIGMDHQALLKQFDHLNHLNPDKFESTDLDMLIKAATSDLEHYDKTRHEEFKKYEMMKEHERREYLKTLNEEKRKEEESKFEEMKKKHENHPKVNHPGSKDQLKEVWEETDGLDPNDFDPKTFFKLHDVNSDGFLDEQELEALFTKELEKVYDPKNEEDDMVEMEEERLRMREHVMNEVDTNKDRLVTLEEFLKATEKKEFLEPDSWETLDQQQFFTEEELKEYENIIALQENELKKKADELQKQKEELQRQHDQLEAQKLEYHQVIQQMEQKKLQQGIPPSGPAGELKFEPHI
In the case of B1, the “anorexia and body weight” value is given as “promotes anorexia and decreases body weight”.
